Measurements published in paper PMC7997880, “MED15 prion-like domain forms a coiled-coil responsible for its amyloid conversion and propagation” (Communications Biology, 2021).

Experiments:
[1] = target: GFP-MED15PP (GFP-MED15CC with five Pro substitutions in the MED15 coiled-coil region); test: synchronous light scattering (self-association / aggregation); conditions: 5 μM protein, 9 hours at 37 °C without agitation in 20 mM Tris pH 7.5 and 150 mM NaCl; parent: est. 620; read off a plot
[2] = target: GFP-MED15PP (GFP-MED15CC with five Pro substitutions in the MED15 coiled-coil region); test: GFP fluorescence of supernatant fraction (self-association / aggregation); conditions: 5 μM protein, 9 hours at 37 °C without agitation in 20 mM Tris pH 7.5 and 150 mM NaCl; parent: est. 0.50; read off a plot
[3] = target: the molecule itself; test: SEC; 2 mg/ml purified protein on Superdex 200 HR 10/30; 20 mM TrisHCl pH 7.4, 150 mM NaCl, 10% glycerol

GFP-MED15CC (human MED15 prion-like domain, MED15-PrLD, residues 141-316, fused at the C-terminus of GFP) MED15PP (five Pro substitutions at heptad 'a' positions; residues not printed in this figure)
response [1]: 180 a.u. | other: Normalized GFP fluorescence (supernatant fraction) [2]: 0.83

B1: GFP-MED15CC (human MED15 prion-like domain, MED15-PrLD, residues 141-316, fused at the C-terminus of GFP) (domain or fragment)
chain: MAVVSTATPQTQLQLQQVALQQQQQQQQFQQQQQAALQQQQQQQQQQQFQAQQSAMQQQFQAVVQQQQQLQQQQQQQQHLIKLHHQNQQQIQQQQQQLQRIAQLQLQQQQQQQQQQQQQQQQALQAQPPIQQPPMQQPQPPPSQALPQQLQQMHHTQHHQPPPQPQQPPVAQNQPS
notes: Mediator complex subunit 15 (MED15), human, prion-like domain with the Q-rich coiled-coil and Pro-rich regions, residues 141-316; No cleavage step is described; Dimer by SEC, native PAGE and DLS; source: E. coli BL21 Rosetta, pET21b, purified from the soluble fraction (two HisTrap Ni steps, RNase treatment, PD10); not shown: GFP, N-terminal, kept
stoichiometry N [3]: 2
